# Measured values reported in publication PMC6011876, “Characterization of the ATPase FlaI of the motor complex of the Pyrococcus furiosus archaellum and its interactions between the ATP-binding protein FlaH” (PeerJ, 2018).
# Where two headings read alike, the source gives them in different places.
# T1: Pyrococcus furiosus FlaH (Pyrococcus furiosus, fluorescently labeled (in the microscale thermophoresis))
# T1 chain: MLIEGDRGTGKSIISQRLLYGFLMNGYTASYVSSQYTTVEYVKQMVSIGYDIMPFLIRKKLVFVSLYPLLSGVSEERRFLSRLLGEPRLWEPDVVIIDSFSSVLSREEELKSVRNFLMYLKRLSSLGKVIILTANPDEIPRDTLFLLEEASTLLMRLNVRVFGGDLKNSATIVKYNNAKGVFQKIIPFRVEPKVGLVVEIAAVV
# B1: C-terminal domain of Pyrococcus furiosus FlaI (domain or fragment)
# chain: LSITQLVAWGTMSAEIAAYLWLAIEYGMSIFVCGETASGKTTTLNAIIPFIKPGSKVYTAEDTPEVQVPHPTWQRLVTRERGPEESRVTLFDLLKAALRSRPNYIIVGEIRGAEGAIAFQAMQTGHPVMSTFHAGDVKKMIQRFTGSPINVPITFIDNLNIAIFQQAVYVKGKFLRRVINVVEIEGYYEELGGVATRNVFEWDPVSDKHIFRGMNNSYILEKKIAEIAGYEDPKDIYDELFLRARIIEKMVELKIFNYWDVYREIKAFYQRGLEGLSFRI
# Columns and labels:
# PfFlaI [1] = biological target: T2, PfFlaI (Pyrococcus furiosus, UniProt Q8U3X0); assay: fluorescence competition against bound MANT-ATP; type: binding; conditions: 20 nM PfFlaI, 10 nM MANT-ATP; 5 mM MgCl2, 20 mM Tris HCl pH 8.0, 150 mM NaCl; 20 °C; Hill fit n = 0.67
# T2 construct: gene PF0331; full length, His-tagged, overexpressed in E. coli Rosetta (DE3), 64 kDa subunit, nucleotide-free homohexamer
# T2 sequence (Q8U3X0 entry or part of it): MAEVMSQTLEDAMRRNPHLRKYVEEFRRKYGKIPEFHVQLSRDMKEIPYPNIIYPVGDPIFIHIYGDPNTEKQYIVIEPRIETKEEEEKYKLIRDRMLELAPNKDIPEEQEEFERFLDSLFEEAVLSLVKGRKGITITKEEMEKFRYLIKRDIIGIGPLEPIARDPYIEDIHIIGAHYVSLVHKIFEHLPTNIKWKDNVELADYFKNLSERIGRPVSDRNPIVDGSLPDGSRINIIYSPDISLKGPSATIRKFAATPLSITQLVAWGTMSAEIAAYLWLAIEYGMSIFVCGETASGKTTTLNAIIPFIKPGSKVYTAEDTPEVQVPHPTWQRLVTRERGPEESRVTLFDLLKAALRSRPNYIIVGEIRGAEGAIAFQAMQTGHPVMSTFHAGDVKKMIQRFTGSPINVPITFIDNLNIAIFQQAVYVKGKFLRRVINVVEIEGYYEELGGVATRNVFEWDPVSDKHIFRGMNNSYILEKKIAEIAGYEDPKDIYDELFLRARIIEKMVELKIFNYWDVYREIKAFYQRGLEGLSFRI
# [2] = biological target: Pyrococcus furiosus FlaI (Pyrococcus furiosus); assay: SEC; Superdex 200 10/300 GL; 500 µl of protein at 1 mg/ml; 20 mM Tris HCl pH 8.0, 150 mM NaCl; no nucleotide added; fractions on SDS-PAGE
# Pyrococcus furiosus FlaH = biological target: T1, Pyrococcus furiosus FlaH; assay: MST; 28 nM fluorescently labeled PfFlaH titrated with 1.3 nM-22.5 µM Pf-CTD or 5.6 nM-11.6 µM Pf-NTD; 20 mM Tris HCl pH 8.0, 150 mM NaCl, 0.05% Tween-20; Monolith NT.115 Pico; fitted to the Hill equation
# PfFlaI [3] = biological target: T2, PfFlaI; assay: fluorescence titration (excitation […] nm, emission […] nm); type: binding; conditions: 5 mM MgCl2, 20 mM Tris HCl pH 8.0, 150 mM NaCl; 20 °C; stoichiometric titration, two sites per hexamer; labelled compound
# [4] = biological target: Pyrococcus furiosus FlaI (Pyrococcus furiosus)
# [5] = biological target: Pyrococcus furiosus FlaI (Pyrococcus furiosus); remark: listed apart in the source
molecule,measurement,setting,value
Nc1ncnc2c1ncn2[C@@H]1O[C@H](COP(=O)(O)OP(=O)(O)OP(=O)(O)O)[C@@H](O)[C@H]1O [ATP],IC50,PfFlaI [1],260 nM
Pyrococcus furiosus FlaI (enzyme),stoichiometry N,[2],6
N-terminal domain of Pyrococcus furiosus FlaI (domain or fragment),Kd,Pyrococcus furiosus FlaH,> 8000 nM
"CNc1ccccc1C(=O)O[C@H]1[C@@H](O)[C@H](n2cnc3c(N)ncnc32)O[C@@H]1COP(=O)(O)OP(=O)(O)OP(=O)(O)O (mixture of isomers) [MANT-ATP, 2′-/3′-O-(N-methylanthraniloyl) adenosine 5′-triphosphate]","fluorescence titration (excitation 285 nm, emission 450 nm)",PfFlaI [3],only two of the ATP binding sites in the hexamer are available for binding of MANT-ATP
Pyrococcus furiosus FlaH (natural protein),"ATPase activity of PfFlaI at 70 °C (malachite green) on addition of PfFlaH, proteins at 1 µM",[4],2 fold
same,ATPase activity at 70 °C of 1 µM PfFlaI with increasing concentrations of PfFlaH; ratio at maximal stimulation (PfFlaH per PfFlaI),[5],1
B1,Kd,Pyrococcus furiosus FlaH; both partners purified,100 nM
